US20250115663A1 (CELLDEX THERAPEUTICS, published 2025)
Positions count from the first letter of the chain named. Each block holds one binder with its values, some of them ahead of it.

Legend:
[1] = biological target: T1, soluble human CD40-MsIgG2a (human, UniProt P25942); assay: BLI (Octet QKe), antibody captured on anti-human Fc (AHC) biosensors, analyte soluble human CD40-MsIgG2a 3.13 to 0.098 nM, 25 C, 1:1 fit
T1 construct: soluble, fused to mouse IgG2a; also called recombinant human CD40-msG2a chimeric protein; CD40-MsIgG2a (Celldex, 60 kD by SDS-PAGE)
Protocol: (§1) Purified antibodies from Example 1 were captured on Anti-Human Fc Capture (AHC) biosensors (Fortebio Product No. 18-5060). Each antibody was prepared in dilution buffer (10mMPO4+150 mM NaCl+1 mg/mL BSA+0.5% Tween 20, pH 7.2) to 0.5 μg/mL and loaded on freshly hydrated AHC biosensors for 35-50 sec at 25° C. and 1000 rpm plate shake speed to achieve a target response of 0.2 nm. Low levels of ligand were captured to limit any effects of mass transport of analyte on kinetic parameters. For one assay, eight biosensors were loaded with the same antibody.
(§2) Binding was determined by exposing six of the antibody loaded biosensors to analyte: soluble human CD40-MsIgG2a (Celldex, 60 kD by SDS-PAGE). Affinity measurements were determined using 2-fold serial dilutions of analyte ranging from 3.13 to 0.098 nM in dilution buffer at 25° C. and 1000 rpm plate shake speed. Association of the antibody loaded biosensors in analyte wells was carried out for 1200 seconds, the biosensors were then moved to dilution buffer wells for 2.5 hrs (9000 sec) for dissociation measurements.
(§3) Fortebio's Data Analysis Software version 8.2.0.7 (Pall ForteBio, Menlo Park, CA) was used in each case to derive kinetic parameters from the concentration series of analyte in dilution buffer binding to captured antibody. The association and dissociation curves were fitted to a 1:1 binding model using the data analysis software according to the manufacturer's guidelines.

[2] = biological target: T1, soluble human CD40-MsIgG2a; assay: BLI (Octet QKe), antibody captured on anti-human Fc (AHC) biosensors, analyte soluble human CD40-MsIgG2a 3.13 to 0.098 nM, 25 C, 1:1 fit; column head kdis(1/s)
Protocol: as §1, §2, §3

[3] = biological target: T2, recombinant human CD40-Fc (human, UniProt P25942 21-193); assay: ELISA on coated recombinant human CD40-Fc, detection anti-human IgG F(ab')2-HRP, OD 450-650 (the y axis is labelled 'Median Fluorescence')
T2 construct: also called soluble recombinant human CD40/Fc chimera from R&D Systems; not shown: The antibody Fc domain of the R&D Systems chimera and any linker to it
Protocol: (§4) Microtiter plates were coated with recombinant human CD40-Fc in PBS, and then blocked with 5% bovine serum albumin in PBS. Protein A purified human mAbs from Example 1 and an isotype control were added at various concentrations and incubated at 37° C. The plates were washed with PBS/Tween and then incubated with a goat-anti-human IgG F(ab′)2-specific polyclonal reagent conjugated to horseradish peroxidase at 37° C. After washing, the plates were developed with HRP substrate, and analyzed at OD 450-650 using a microtiter plate reader.

[4] = biological target: T2, recombinant human CD40-Fc; assay: ELISA on coated recombinant human CD40-Fc, detection anti-human IgG F(ab')2-HRP, OD 450-650
Protocol: as §4, with “Protein A purified human mAbs from Example 1 and an isotype control were added at various concentrations and incubated at 37° C.” left out

T2 sequence (P25942 21-193 limits assumed, form in doubt): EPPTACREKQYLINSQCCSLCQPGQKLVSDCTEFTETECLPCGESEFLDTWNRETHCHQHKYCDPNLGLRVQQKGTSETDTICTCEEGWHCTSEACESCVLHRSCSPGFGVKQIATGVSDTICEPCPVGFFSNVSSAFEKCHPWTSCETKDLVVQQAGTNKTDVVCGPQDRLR
T1 sequence (P25942 21-193 limits assumed): as the sequence (P25942 21-193 limits assumed, form in doubt) above

Kd [1]: 0.0079 nM
kon [1]: 782000 M⁻¹ s⁻¹
koff [2]: 6.14e-06 s⁻¹
B1: anti-CD40 human monoclonal antibody 3B6 (antibody, human IgG2, V domains shown)
VH: EVQLLESGGGLVQPGGSLRLSCAASGFTFSSYAMSWVRQAPGKGLEWVSGITGTGGSTYYADSVKGRFTISRDNSKNTLYVQMNSLRAEDTAVYYCAKRAGGSFYYYYGMDVWGQGTTVTVSS
VL: DIVMTQSPLSLPVTPGEPASISCRSSQSLLHSTGYNYLDWYLQKPGQSPQLLIYLGSNRASGVPDRFNGSGSGTDFTLKISRVEAEDFGVYYCMQALQTPWTFGHGTKVEIK
notes: Human IgG2

EC50 (read off the curve) [3]: ~0.09 µg/mL
B2: anti-CD40 human monoclonal antibody 1B5-NK (antibody, human IgG2, V domains shown)
VH: QVQLVESGGGVVQPGRSLRLSCAASGFTFSSFGMHWVRQAPGKGLEWVTLIWFDGSSKYYADSVKGRFTISRDNSKNTLYLQMNSLRAEDTAVYYCVRGFAAVAGWYFDFWGRGTLVTVSS
VL: DIQMTQSPSSLSASVGDRVTITCRASQGVRKYLAWYQQKPGKVPKLLIYAASTLQSGVPSRFSGSGSGTDFTLTISSLQPEDVATYYCQKYFSAPYTFGQGTKLEIK
notes: Human IgG2

Kd [1]: 0.0105 nM
kon [1]: 832000 M⁻¹ s⁻¹
koff [2]: 8.76e-06 s⁻¹
B6: anti-CD40 human monoclonal antibody 1B4 (antibody, human IgG2, V domains shown)
VH: EVQLLESGGGLVQPGGSLRLSCAASGFTFSSYAMTWVRQVPGKGLEWVSGITGSGANTFYTDSVKGRFTISRDNSNNSLYLQMNSLRADDTAVYYCAKRNGGSYYYYYGMDVWGQGTTVTVSS
VL: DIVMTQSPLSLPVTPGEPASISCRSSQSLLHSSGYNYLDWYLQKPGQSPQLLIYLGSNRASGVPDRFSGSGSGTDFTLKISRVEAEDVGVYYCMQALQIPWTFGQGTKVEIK
notes: Human IgG2

The next lines start with the binder.

B3: F(ab')2 fragment of antibody 3C3 (other)
VH: QVQLVESGGGVVQPGRSLRLSCAGSGFIFSRYGMYWVRQAPGKGLEWVAVIWYDGSYKYYADSVKGRFTISRDNSKNTLYLQMNSLRAEDTAVYYCARESPWYYFDYWGQGTLVTVSS
VL: B2 VL with V29I, R30S, K31N, F92K, Y96F, Q100P, L104V, E105D
notes: F(ab')2 version of the IgG2 antibody, lacking the Fc domain; also called 3C3 F(ab')2
EC50 (read off the curve) [4]: ~0.4 nM

B4: anti-CD40 human monoclonal antibody 6H6 (antibody, human IgG2, V domains shown)
VH: QVQLVESGGGVVQPGRSLRFSCAASGFTLSSYGMHWVRQAPGKGLEWVAVIWDDGSNKYYADSVKGRFTISRDNSKNTLYLQMNSLRAEDTAVYYCARAGGSGRYYNYFDYWGQGTLVTVSS
VL: EIVMTQSPATLSVSPGERATLSCRASQSVRSNLAWYQQKPGQAPRLLIYGASTRATGIPARFSGSGSGTDFTLTISSLQSEDFAVYYCQQHNNWLTFGGGTKVEIK
notes: Human IgG2
Kd [1]: 0.0028 nM
kon [1]: 905000 M⁻¹ s⁻¹
koff [2]: 2.49e-06 s⁻¹

B5: F(ab')2 fragment of antibody 3G5 (other)
VH: B4 VH with R16K, F20L, L29F, Y32N, M34I, D53S, Y59F, G100S, R104S, Y108F
VL: B4 VL with D70E, S76N, N93K, L95I, G99Q, K102R, V103L
notes: F(ab')2 version of the IgG2 antibody, lacking the Fc domain; also called 3G5 F(ab')2
EC50 (read off the curve) [4]: ~0.3 nM
